Data as given in publication PMC3542428, “Functional Insights from the Crystal Structure of the N-Terminal Domain of the Prototypical Toll Receptor” (Structure(London, England:1993), 2013).

Key:
[1] = target: TollN6-VLR (hybrid of Toll residues 28-228 and variable lymphocyte receptor B.61 residues 133-201) (Drosophila melanogaster | hagfish) (UniProt P08953); assay: dynamic light scattering; 100 mM NaCl, 50 mM Tris-HCl pH 7.0, about 200 μg/ml; Z-average diameter 12.7 nm, polydispersion index about 0.1
[2] = target: Toll (Drosophila melanogaster) (UniProt P08953); settings: cited from earlier work
[3] = target: T1, TollN13-VLR (Toll N-terminal region up to LRR13 fused to VLR B.61 residues 133-201) (Drosophila melanogaster | hagfish, UniProt P08953 28-397; Q4G1L2 133-201); assay: SEC; gel filtration of the Toll-VLR constructs alone and mixed with Spz C-106 (TollN6-VLR and C-106 in equimolar concentrations); settings: both partners purified
T1 construct: Toll, Drosophila melanogaster, UniProt P08953, residues 28-397 (first 13 LRRs); cloned as residues 1-397 with its own signal peptide; the results say 'up to Leu 398 in LRR13'; variable lymphocyte receptor (VLR) B.61 of hagfish, residues Asn 133-Thr 201 (LRRCT cap); C-terminal limit of the Toll part is printed as 397 (methods, discussion) and as Leu 398 (results); also called larger Toll …
T1 chain (looked up): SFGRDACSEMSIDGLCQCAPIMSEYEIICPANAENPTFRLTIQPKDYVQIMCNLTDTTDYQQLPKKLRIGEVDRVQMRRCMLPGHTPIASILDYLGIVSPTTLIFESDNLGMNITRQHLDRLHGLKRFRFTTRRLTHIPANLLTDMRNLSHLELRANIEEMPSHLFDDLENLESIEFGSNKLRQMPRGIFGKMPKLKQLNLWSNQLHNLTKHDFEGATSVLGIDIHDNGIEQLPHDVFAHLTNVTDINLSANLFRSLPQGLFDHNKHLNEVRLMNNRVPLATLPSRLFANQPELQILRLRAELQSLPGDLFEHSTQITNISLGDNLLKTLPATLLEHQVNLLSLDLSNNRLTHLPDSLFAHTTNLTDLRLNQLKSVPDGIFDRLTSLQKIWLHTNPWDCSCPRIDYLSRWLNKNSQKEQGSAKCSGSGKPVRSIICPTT

[4] = target: single and double mutations of Cys 34, Cys 43 and Cys 45 in the Toll-TLR4 chimera
[5] = target: T2, full-length Toll ECD (extracellular domain of Drosophila melanogaster Toll) (Drosophila melanogaster, UniProt P08953 28-807); assay: SEC; data not shown; same preparation of C-106 with full-length Toll ECD, complexes elute as 280 kDa species; settings: both partners purified
T2 construct: Toll, Drosophila melanogaster, UniProt P08953, full-length extracellular domain; Also used as the target of the functional row on endogenous Toll of S2 cells (no molecule of its own was made for the whole receptor); also called full-length ECD; full-length ectodomain
T2 sequence (looked up): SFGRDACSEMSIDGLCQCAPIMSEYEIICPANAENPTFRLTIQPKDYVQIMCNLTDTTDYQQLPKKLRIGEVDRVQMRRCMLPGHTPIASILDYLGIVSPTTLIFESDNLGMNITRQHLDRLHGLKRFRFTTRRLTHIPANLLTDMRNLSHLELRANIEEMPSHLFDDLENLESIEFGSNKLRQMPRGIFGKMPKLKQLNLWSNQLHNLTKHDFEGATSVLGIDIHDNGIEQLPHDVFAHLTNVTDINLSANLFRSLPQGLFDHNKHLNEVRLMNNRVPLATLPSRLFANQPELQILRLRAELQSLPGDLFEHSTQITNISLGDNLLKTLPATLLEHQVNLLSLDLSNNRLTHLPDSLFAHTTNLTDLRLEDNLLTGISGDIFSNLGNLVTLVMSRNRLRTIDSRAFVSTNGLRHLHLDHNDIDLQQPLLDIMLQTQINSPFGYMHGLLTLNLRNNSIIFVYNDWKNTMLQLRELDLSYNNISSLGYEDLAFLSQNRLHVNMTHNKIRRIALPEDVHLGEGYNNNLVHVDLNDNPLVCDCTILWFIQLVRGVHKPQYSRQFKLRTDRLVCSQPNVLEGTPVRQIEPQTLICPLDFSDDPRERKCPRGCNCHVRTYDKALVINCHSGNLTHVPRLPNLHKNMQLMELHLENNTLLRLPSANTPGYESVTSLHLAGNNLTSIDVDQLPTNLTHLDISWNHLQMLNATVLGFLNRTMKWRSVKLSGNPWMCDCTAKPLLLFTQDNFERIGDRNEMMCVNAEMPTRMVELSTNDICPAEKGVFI

Q: Which stoichiometry N [1] does the source give for “TollN6-VLR (hybrid of Toll residues 28-228 and variable lymphocyte receptor B.61 residues 133-201) (from UniProt P08953 28-228; Q4G1L2 133-201) (domain or fragment)” here?
A: 4

Q: With Toll (from UniProt P08953) as the molecule, how does the Kd [2] read?
A: 2000 nM

B1: Spätzle C-106 (C-terminal active fragment of 106 amino acids of processed Spätzle) (ligand, Drosophila melanogaster, UniProt P48607 221-326, looked up)
chain: VGGSDERFLCRSIRKLVYPKKGLRADDTWQLIVNNDEYKQAIQIEECEGADQPCDFAANFPQSYNPICKQHYTQQTLASIKSDGELDVVQNSFKIPSCCKCALKTG
notes: Spätzle (Spz), Drosophila melanogaster; also called cleaved Spz; source: baculovirus expression system, His-tagged Spätzle, purified
Q: With B1 as the molecule, how does the “stoichiometry N” value [3] read?
A: 1 ratio (1:1 as printed)

Q: And the NF-κB luciferase reporter in HEK293ET cells transfected with the Toll-TLR4 chimera, 24 hr after Spz stimulation at 10 nM; decrease of the signal against the wild-type chimera [4]?
A: 10 % decrease

Q: And the “stoichiometry N” value [5]?
A: 1 ratio (2:2 as printed)
